B1: Programmed cell death 6-interacting protein (Homo sapiens), Q8WUM4 (parent)
chain: MATFISVQLKKTSEVDLAKPLVKFIQQTYPSGGEEQAQYCRAAEELSKLRRAAVGRPLDKHEGALETLLRYYDQICSIEPKFPFSENQICLTFTWKDAFDKGSLFGGSVKLALASLGYEKSCVLFNCAALASQIAAEQNLDNDEGLKIAAKHYQFASGAFLHIKETVLSALSREPTVDISPDTVGTLSLIMLAQAQEVFFLKATRDKMKDAIIAKLANQAADYFGDAFKQCQYKDTLPKEVFPVLAAKHCIMQANAEYHQSILAKQQKKFGEEIARLQHAAELIKTVASRYDEYVNVKDFSDKINRALAAAKKDNDFIYHDRVPDLKDLDPIGKATLVKSTPVNVPISQKFTDLFEKMVPVSVQQSLAAYNQRKADLVNRSIAQMREATTLANGVLASLNLPAAIEDVSGDTVPQSILTKSRSVIEQGGIQTVDQLIKELPELLQRNREILDESLRLLDEEEATDNDLRAKFKERWQRTPSNELYKPLRAEGTNFRTVLDKAVQADGQVKECYQSHRDTIVLLCKPEPELNAAIPSANPAKTMQGSEVVNVLKSLLSNLDEVKKEREGLENDLKSVNFDMTSKFLTALAQDGVINEEALSVTELDRVYGGLTTKVQESLKKQEGLLKNIQVSHQEFSKMKQSNNEANLREEVLKNLATAYDNFVELVANLKEGTKFYNELTEILVRFQNKCSDIVFARKTERDELLKDLQQSIAREPSAPSIPTPAYQSSPAGGHAPTPPTPAPRTMPPTKPQPPARPPPPVLPANRAPSATAPSPVGAGTAAPAPSQTPGSAPPPQAQGPPYPTYPGYPGYCQMPMPMGYNPYAYGQYNMPYPPVYHQSPGQAPYPGPQQPSYPFPQPPQQSYYPQQ
partner: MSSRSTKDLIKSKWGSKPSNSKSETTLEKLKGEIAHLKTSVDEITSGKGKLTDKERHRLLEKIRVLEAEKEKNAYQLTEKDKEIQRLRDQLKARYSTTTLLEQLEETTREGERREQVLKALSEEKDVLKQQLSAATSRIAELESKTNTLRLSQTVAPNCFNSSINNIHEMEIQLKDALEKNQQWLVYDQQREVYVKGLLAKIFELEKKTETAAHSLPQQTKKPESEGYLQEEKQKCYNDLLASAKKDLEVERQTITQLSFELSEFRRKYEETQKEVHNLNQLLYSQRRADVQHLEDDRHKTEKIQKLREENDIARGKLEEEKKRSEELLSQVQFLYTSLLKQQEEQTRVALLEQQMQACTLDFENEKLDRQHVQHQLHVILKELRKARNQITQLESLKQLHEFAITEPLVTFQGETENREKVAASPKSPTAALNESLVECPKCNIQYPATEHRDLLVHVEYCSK
B2: Programmed cell death 6-interacting protein (Homo sapiens), Q8WUM4 (parent)
chain: B1 chain
B3: Programmed cell death protein 6 (Homo sapiens), O75340 (parent)
chain: MAAYSYRPGPGAGPGPAAGAALPDQSFLWNVFQRVDKDRSGVISDTELQQALSNGTWTPFNPVTVRSIISMFDRENKAGVNFSEFTGVWKYITDWQNVFRTYDRDNSGMIDKNELKQALSGFGYRLSDQFHDILIRKFDRQGRGQIAFDDFIQGCIVLQRLTDIFRRYDTDQDGWIQVSYEQYLSMVFSIV

Variants of: B1
Settings: with cep55_human CEP55, Q53EZ4

| Variant | effect of a mutation on the interaction |
| --- | --- |
| P802A | disrupting interaction |

Variants of: B2
Settings: with pdcd6_human PDCD6, O75340

| Variant | effect of a mutation on the interaction |
| --- | --- |
| P802A | disrupting interaction |
| P804A | disrupting interaction |
| Y803A | disrupting interaction |

Variants of: B2
Settings: with pdcd6_human PDCD6, O75340
Remark: another data set of the same source

| Variant | effect of a mutation on the interaction |
| --- | --- |
| P802A | decreasing interaction |
| P804A | decreasing interaction |
| Y803A | decreasing interaction |

Variants of: B3
Settings: with pdc6i_human PDCD6IP

| Variant | effect of a mutation on the interaction |
| --- | --- |
| D169A | disrupting interaction |
| Y124A | disrupting interaction |
| R125A | disrupting interaction |
| W95A | disrupting interaction |
| Y180A | disrupting interaction |
| Y91A | disrupting interaction |
